T1: cynomolgus CD79b (TAHO40) (cynomolgus monkey)
T1 chain: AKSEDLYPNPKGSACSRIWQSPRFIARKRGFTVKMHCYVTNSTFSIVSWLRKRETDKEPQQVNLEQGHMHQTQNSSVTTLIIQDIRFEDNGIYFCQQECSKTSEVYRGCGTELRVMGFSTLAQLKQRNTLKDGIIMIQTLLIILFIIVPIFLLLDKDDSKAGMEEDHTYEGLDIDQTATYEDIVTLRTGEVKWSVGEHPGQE

T2: human CD79b (TAHO5) (human, UniProt P40259 29-229)
T2 sequence: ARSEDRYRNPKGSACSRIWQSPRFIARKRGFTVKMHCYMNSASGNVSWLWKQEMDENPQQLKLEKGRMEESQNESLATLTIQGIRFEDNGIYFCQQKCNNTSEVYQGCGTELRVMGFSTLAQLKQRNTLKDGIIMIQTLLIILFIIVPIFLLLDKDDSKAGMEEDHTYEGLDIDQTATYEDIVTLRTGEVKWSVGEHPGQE

B1: anti-cyno CD79b (10D10)-SMCC-DM1 (antibody, V domains shown)
VH: EVQLQESGPGLVKPSQSLSLTCTVTGYSITSDYAWNWIRQFPGNKLEWMGNIWYSGSTTYNPSLKSRISITRDTSKNQFFLQLNSVTSEDTATYYCSRMDFWGQGTTLTVSS
VL: DIVLTQSPPSLAVSLGQRATISCRASESVDSYGKTFMHWHQQKPGQPPKLLIYRVSNLESGIPARFSGSGSRTDFTLTINPVEADDVATYYCQQSNEDPFTFGGGTKLEIKR
modifications: DM1 linked through SMCC to the epsilon-amino group of lysines; drug to antibody ratio typically 3 to 4
B2: anti-cyno CD79b (10D10)-MC-MMAF (antibody, V domains shown)
VH: B1 VH
VL: B1 VL
modifications: MMAF linked through the cysteine by the maleimidocaproyl (MC) linker; sites and load not stated

Key:
[1] = target: T1, cynomolgus CD79b (TAHO40); experiment: cell-based or functional assay
human CD79b (TAHO5) = target: T2, human CD79b (TAHO5); experiment: cell-based or functional assay

Binder | IC50 of tumor cell killing (CellTiter-Glo), BJAB-cyno CD79b cells [1] | IC50 of tumor cell killing (CellTiter-Glo), non-transfected BJAB cells (human CD79b (TAHO5))
B1 | 0.33 nM | 10 nM
B2 | 0.07 nM | 694 nM
